Reference: US10006011

Key:
[1] = system: TALEN left L20 of FIG. 4B (Comparative Example 1) (synthetic construct); test: cell_activity; settings: SSA assay HEK293T, reference pair with R17
[2] = system: TALEN right R17 of FIG. 4B (Comparative Example 1) (synthetic construct); test: cell_activity; settings: SSA assay HEK293T, reference pair with L20

TCCATTCCTATGACTGTAGATTTTTATCAGACTGAAGAGCTATTGTGTGAGTATA (double strand) [FIG. 4B TALEN target]
activity [1]: 1 relative | activity [2]: 1 relative
